# From paper PMC11659421, “Structural insights into the enzymatic breakdown of azomycin-derived antibiotics by 2-nitroimdazole hydrolase (NnhA)” (Communications Biology, 2024)
# Tests used:
# [1] = test system: O=[N+]([O-])c1ncc[nH]1; test: nitrite release, Griess reaction, Michaelis-Menten plot; format: biochemical, Mycobacterium sp. JS330; settings: 25-400 µM 2NI, 25 °C, no metal or cofactor
# Description: nitrite release, Griess reaction, Michaelis-Menten plot on NnhA
# [2] = biological target: the molecule itself; test: crystal structure; crystals in space groups P1 (6 molecules in the asymmetric unit) and H32 (one protomer, hexamer by crystallographic symmetry); grown in polyacrylic acid 5100, MgCl2, HEPES pH 7.2, or PEG 3350 with sodium malonate pH 7.0; data at 100 K
# [3] = biological target: the molecule itself; test: SEC; Superdex 200 prep column during purification, 20 mM Tris pH 7.5, 50 mM NaCl; molecular weight estimate assumes a globular complex
# [4] = 1.1 µM enzyme, soluble variant from directed evolution
molecule,measurement,setting,value
NnhA (Mycobacterium sp. JS330; G14D/K73R/T2I),Km,[1]; [4],109.8 ± 7.6 µM
same,kcat,[1]; [4],0.3 ± 0.007 s⁻¹
same,kcat/Km,[1]; [4],2730 M⁻¹ s⁻¹
NnhA (Mycobacterium sp. JS330; C352A/G14D/K73R/T2I),Km,[1]; 3.3 µM enzyme,24.5 ± 3.3 µM
same,kcat,[1]; 3.3 µM enzyme,0.0122 ± 0.000333 s⁻¹
same,kcat/Km,[1]; 3.3 µM enzyme,500 M⁻¹ s⁻¹
NnhA (Mycobacterium sp. JS330),Km,[1]; 1.1 µM enzyme,93.1 ± 14.1 µM
same,kcat,[1]; 1.1 µM enzyme,0.0212 ± 0.00267 s⁻¹
same,kcat/Km,[1]; 1.1 µM enzyme,200 M⁻¹ s⁻¹
"soluble NnhA (2-nitroimidazole nitrohydrolase A, T2I-G14D-K73R variant) (enzyme, 2-nitroimidazole nitrohydrolase A (NnhA) of Mycobacterium sp; JS330, UniProt F4ZCI3.1; electron density from R11 to R379 at the C-terminus; Variant found by four rounds of directed evolution (error-prone PCR); also called NnhA-T2I-G14D-K73R; soluble T2I, G14D, K73R NnhA mutant; source: no nickel column; not shown: His6, N-terminal, kept) MITVDKRPSSRGYDDWRLSDIPQYKDGISTYEFVRATHEADYRTHQAEPVAGRTFGFNGIGRLTEVALHMPTRYTLHDQSSQYKESPSFFQGLMGVPDRGPVDLAAFQRETEELATAFENNGIKVHWVDYPEEPANPYGPLMGHVFLSWGSIWRGGSVISRFGFLPGMVGVSEYLAKWAWNTLNIPPLVAITEGAMEPGACNMIADEVLVTCLSASYDQRGTDQLVAAISKTSGTEEFHNLQLRPAVEGFFNKATGACAHPDININAIDVGKLVVSPAALDWDARTWLYDNNFELIEADPDEQREFLAPCNVLLLEPGKVIAHADCHKTNQKIRDAGVEVIEVTGTEIRKACGGIKCRVMQINREPGPTLADVRNRVWR",stoichiometry N,[2],6
same,stoichiometry N,[3],~4
"NnhA-T2I-G14D-K73R-C357A (enzyme, 2-nitroimidazole nitrohydrolase A (NnhA) of Mycobacterium sp; JS330, UniProt F4ZCI3.1; also called NnhA C357A; source: no nickel column) MITVDKRPSSRGYDDWRLSDIPQYKDGISTYEFVRATHEADYRTHQAEPVAGRTFGFNGIGRLTEVALHMPTRYTLHDQSSQYKESPSFFQGLMGVPDRGPVDLAAFQRETEELATAFENNGIKVHWVDYPEEPANPYGPLMGHVFLSWGSIWRGGSVISRFGFLPGMVGVSEYLAKWAWNTLNIPPLVAITEGAMEPGACNMIADEVLVTCLSASYDQRGTDQLVAAISKTSGTEEFHNLQLRPAVEGFFNKATGACAHPDININAIDVGKLVVSPAALDWDARTWLYDNNFELIEADPDEQREFLAPCNVLLLEPGKVIAHADCHKTNQKIRDAGVEVIEVTGTEIRKACGGIKARVMQINREPGPTLADVRNRVWR",stoichiometry N,[2],6
